This series has as its system Bacillus subtilis DB104 (SP-AmyQ fusion secretion). As to the kind of experiment: AmyQ secretion efficiency, weighted average sort bin (1 = best secretion, 10 = worst) (bin number (weighted average, 1-10)); higher = lower secretion efficiency. The essentials:
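In this assay, the secretion score is defined as the average bin number weighted by read frequency, normalised to beads per bin, with low-abundance sequences not counted. B. subtilis DB104 cells expressing mature AmyQ behind designed signal peptides (amyE-integrated) were enclosed with fluorescein-starch in ~65 nL alginate beads at about 0.3 cells per bead. Beads grew about 13 h at room temperature, were stained with nile red, and occupied beads went into 10 equally populated green/red fluorescence ratio bins by large-particle flow cytometry, whose amplicons were Illumina-sequenced.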

In turn, MKKSQYGGQTFGLVMGFSQFQPSTVFAADK showed an AmyQ secretion efficiency of 6.36.

The sequence MKKSQYSRQSKCTFVLFSVHPIAAAAADS had an AmyQ secretion efficiency of 7.33.

In the case of MKKSQYTTLFIVFICFFVLFSVHPIAAAAADS, the AmyQ secretion efficiency is 2.98.

Sequence MKKSRRALLLLLFAFEPSASGKKL displayed an AmyQ secretion efficiency of 7.28.

For MKKSSYCSYQRQVILSGVALTQLS, the AmyQ secretion efficiency turned out to be 7.04.

For the sequence MKKSTRKYKILGALGTSYISADSS, the AmyQ secretion efficiency came out at 7.69.

The sequence MKKSYKATALFLGLTPAGANAADL gave an AmyQ secretion efficiency of 8.17.

In turn, MKKTGIRFLLVSFVLFFALSTGITGVQAAPA had an AmyQ secretion efficiency of 1.8.

In turn, MKKTGQQLLSLGLVFGFSYGAGHVAEAKTK gave an AmyQ secretion efficiency of 3.07.

MKKTIMFVAVAALSTTAFGAHASAKEI: the AmyQ secretion efficiency was 3.

Regarding MKKTIMSFFFVAVAALSTTAFGAHASAKEI, the AmyQ secretion efficiency worked out at 2.53.

MKKTIMSFKRKKALSTTAFGAHASAKEI had an AmyQ secretion efficiency of 7.79.

Sequence MKKTIMSFKRKKKKSTTAFGAHASAKEI came in with an AmyQ secretion efficiency of 6.45.

In turn, MKKTIMSFVAVAALSTGAHASAKEI yielded an AmyQ secretion efficiency of 2.46.

In the case of MKKTIMSFVAVAALSTTAFEEDHASAKEI, the AmyQ secretion efficiency amounted to 2.56.

In the case of MKKTIMSFVAVAALSTTAFFAIASAKEI, the AmyQ secretion efficiency came to 6.16.

Consider MKKTIMSFVAVAALSTTAFGAHASAADD, for which the AmyQ secretion efficiency worked out at 2.13.

Regarding MKKTIMSFVAVAALSTTAFGAHASAAKR, the AmyQ secretion efficiency was 2.03.

Consider MKKTIMSFVAVAALSTTAFGAHASAATI, for which the AmyQ secretion efficiency came to 2.11.

In turn, MKKTIMSFVAVAALSTTAFGAHASAATK had an AmyQ secretion efficiency of 3.57.

The sequence MKKTIMSFVAVAALSTTAFGAHASAKKR yielded an AmyQ secretion efficiency of 2.68.

For MKKTIMSFVAVAALSTTAFGAHASFKEI, the AmyQ secretion efficiency came to 5.37.

In the case of MKKTIMSFVAVAALSTTAFGAHASGKEI, the AmyQ secretion efficiency came to 2.91.

As for MKKTIMSFVAVAALSTTAFGAHASLKEI, the AmyQ secretion efficiency stood at 6.92.

Sequence MKKTIMSFVAVAALSTTAFGAHASPKEI showed an AmyQ secretion efficiency of 3.96.

In the case of MKKTIMSFVAVAALSTTAFGAHASRKEI, the AmyQ secretion efficiency was determined as 4.66.

Turning to MKKTIMSFVAVAALSTTAFGAHASSKEI, the AmyQ secretion efficiency was found to be 3.17.

As to MKKTIMSFVAVAALSTTAFGAHASTKEI, the AmyQ secretion efficiency came to 5.13.

With MKKTIMSFVAVAALSTTAFGAHASWKEI, the AmyQ secretion efficiency worked out at 6.56.

Take MKKTIMSFVAVAALSTTAFGAHASYKEI: the AmyQ secretion efficiency came out at 7.

Turning to MKKTIMSFVAVAALSTTAFGAHCSAKEI, the AmyQ secretion efficiency was 2.42.

In turn, MKKTIMSFVAVAALSTTAFGAHFSAKEI showed an AmyQ secretion efficiency of 4.73.

The sequence MKKTIMSFVAVAALSTTAFGAHGVFPASASAKEI came in with an AmyQ secretion efficiency of 3.09.

MKKTIMSFVAVAALSTTAFGAHISAKEI: the AmyQ secretion efficiency stood at 4.65.

The sequence MKKTIMSFVAVAALSTTAFGAHLSAKEI yielded an AmyQ secretion efficiency of 2.5.

As to MKKTIMSFVAVAALSTTAFGAHPTASAKEI, the AmyQ secretion efficiency was found to be 2.53.

The sequence MKKTIMSFVAVAALSTTAFGAHRSAKEI displayed an AmyQ secretion efficiency of 5.69.

On to MKKTIMSFVAVAALSTTAFGAHSSAKEI, for which the AmyQ secretion efficiency came out at 3.37.

As to MKKTIMSFVAVAALSTTAFGAHTSAKEI, the AmyQ secretion efficiency came to 2.69.

In turn, MKKTIMSFVAVAALSTTAFGAHVSAKEI showed an AmyQ secretion efficiency of 2.83.

On to MKKTIMSFVAVAALSTTAFKRRHASAKEI, for which the AmyQ secretion efficiency was determined as 7.04.

MKKTIMSFVAVAALSTTAFQPHASAKEI registered an AmyQ secretion efficiency of 2.23.

In the case of MKKTIMSFVAVAALSTTAFRRRKKKHASAKEI, the AmyQ secretion efficiency was found to be 6.72.

For MKKTIMSFVAVAALSTTAFTGAHASAKEI, the AmyQ secretion efficiency was found to be 2.34.

Sequence MKKTIMSFVAVAALSTTAFVAFTTSTLSGAHASAKEI yielded an AmyQ secretion efficiency of 4.48.

MKKTIMSFVAVAALSTTAFVLSSFGAHASAKEI had an AmyQ secretion efficiency of 3.42.

In turn, MKKTIMSQKQTAALSTTAFGAHASAKEI had an AmyQ secretion efficiency of 7.42.

In turn, MKKTIMSTYGVAALSTTAFGAHASAKEI gave an AmyQ secretion efficiency of 8.21.

The sequence MKKTLAAGIIGLLTVSIASPSFAAEK displayed an AmyQ secretion efficiency of 2.62.

MKKTMTIGLLFMLCLAALFTIGFPAQQADAAEA registered an AmyQ secretion efficiency of 2.9.

Sequence MKKTRQTLVILGALGTSYISADSS displayed an AmyQ secretion efficiency of 5.19.

For the sequence MKKTSGTKYKCQSLILSVLAAPPSGAKAESV, the AmyQ secretion efficiency worked out at 7.18.

Sequence “MKKTSSFNFSSTAFLVFLSVVLVTTVFLVKQQESVAQAKQL” returned an AmyQ secretion efficiency of 2.65.

Consider MKKTTNVLMAFIICLSLILSVLAAPPSGAKAESV, for which the AmyQ secretion efficiency was determined as 2.36.

Consider MKKTTTKYFMFGLVMGFSQFQPSTVFAADK, for which the AmyQ secretion efficiency was 3.56.

MKKVGLLAGCLAAGGFSYNAFATEN yielded an AmyQ secretion efficiency of 6.86.

With MKKVILAAFILVGSTLGAFSFSSDASAKHV, the AmyQ secretion efficiency was found to be 2.08.

MKKVKKRKRKCLSLILSVLAAPPSGAKAESV had an AmyQ secretion efficiency of 7.36.

Turning to MKKVKKRRIICLSLILSVLAAPPSGAKAESV, the AmyQ secretion efficiency was 1.81.

Sequence MKKVKRAFIICLSLILSVLAAPPSGAKAESV yielded an AmyQ secretion efficiency of 1.67.

In turn, MKKVLMAFIICLSLILDVLAAPPSGAKAESV returned an AmyQ secretion efficiency of 1.95.

Consider MKKVLMAFIICLSLILEDDDEEDSGAKAESV, for which the AmyQ secretion efficiency came to 4.1.

MKKVLMAFIICLSLILQGGKGPPGGAKAESV: the AmyQ secretion efficiency is 5.23.

The sequence MKKVLMAFIICLSLILRRRKKPPSGAKAESV returned an AmyQ secretion efficiency of 7.24.

The sequence MKKVLMAFIICLSLILSAKAESV displayed an AmyQ secretion efficiency of 4.24.

Regarding MKKVLMAFIICLSLILSGLAAPPSGAKAESV, the AmyQ secretion efficiency came to 2.28.

The sequence MKKVLMAFIICLSLILSTISSVLAAPPSGAKAESV came in with an AmyQ secretion efficiency of 2.8.

MKKVLMAFIICLSLILSVLAAAKAESV displayed an AmyQ secretion efficiency of 4.23.

In the case of MKKVLMAFIICLSLILSVLAAPPSGAKAAED, the AmyQ secretion efficiency came out at 3.24.

Regarding MKKVLMAFIICLSLILSVLAAPPSGAKAARR, the AmyQ secretion efficiency was found to be 2.06.

MKKVLMAFIICLSLILSVLAAPPSGAKAASE showed an AmyQ secretion efficiency of 1.49.

MKKVLMAFIICLSLILSVLAAPPSGAKAASK registered an AmyQ secretion efficiency of 1.85.

As to MKKVLMAFIICLSLILSVLAAPPSGAKAASV, the AmyQ secretion efficiency was 1.88.

Regarding MKKVLMAFIICLSLILSVLAAPPSGAKAKRR, the AmyQ secretion efficiency came out at 2.43.

With MKKVLMAFIICLSLILSVLAAPPSGAKCESV, the AmyQ secretion efficiency turned out to be 3.94.

In turn, MKKVLMAFIICLSLILSVLAAPPSGAKEESV gave an AmyQ secretion efficiency of 3.2.

As to MKKVLMAFIICLSLILSVLAAPPSGAKGESV, the AmyQ secretion efficiency is 2.46.

For the sequence MKKVLMAFIICLSLILSVLAAPPSGAKIESV, the AmyQ secretion efficiency was found to be 5.54.

Turning to MKKVLMAFIICLSLILSVLAAPPSGAKLESV, the AmyQ secretion efficiency stood at 8.94.

For MKKVLMAFIICLSLILSVLAAPPSGAKMESV, the AmyQ secretion efficiency is 4.39.

Regarding MKKVLMAFIICLSLILSVLAAPPSGAKPESV, the AmyQ secretion efficiency was 4.65.

As for MKKVLMAFIICLSLILSVLAAPPSGAKQESV, the AmyQ secretion efficiency came to 2.57.

MKKVLMAFIICLSLILSVLAAPPSGAKSESV: the AmyQ secretion efficiency was determined as 3.92.

MKKVLMAFIICLSLILSVLAAPPSGAKTESV registered an AmyQ secretion efficiency of 5.06.

Take MKKVLMAFIICLSLILSVLAAPPSGAKVESV: the AmyQ secretion efficiency came to 4.98.

In turn, MKKVLMAFIICLSLILSVLAAPPSGCKAESV registered an AmyQ secretion efficiency of 1.89.

Regarding MKKVLMAFIICLSLILSVLAAPPSGDKAESV, the AmyQ secretion efficiency was 5.71.

For MKKVLMAFIICLSLILSVLAAPPSGEKAESV, the AmyQ secretion efficiency came to 6.63.

With MKKVLMAFIICLSLILSVLAAPPSGGKAESV, the AmyQ secretion efficiency is 5.

With MKKVLMAFIICLSLILSVLAAPPSGHKAESV, the AmyQ secretion efficiency came out at 7.55.

For the sequence MKKVLMAFIICLSLILSVLAAPPSGIKAESV, the AmyQ secretion efficiency was determined as 3.36.

The sequence MKKVLMAFIICLSLILSVLAAPPSGKKAESV yielded an AmyQ secretion efficiency of 8.34.

MKKVLMAFIICLSLILSVLAAPPSGMKAESV registered an AmyQ secretion efficiency of 1.84.

In turn, MKKVLMAFIICLSLILSVLAAPPSGNKAESV registered an AmyQ secretion efficiency of 4.42.

Regarding MKKVLMAFIICLSLILSVLAAPPSGPKAESV, the AmyQ secretion efficiency was determined as 3.78.

MKKVLMAFIICLSLILSVLAAPPSGQKAESV came in with an AmyQ secretion efficiency of 7.08.

As for MKKVLMAFIICLSLILSVLAAPPSGSAVSAKAESV, the AmyQ secretion efficiency was 2.05.

The sequence MKKVLMAFIICLSLILSVLAAPPSGSKAESV yielded an AmyQ secretion efficiency of 3.67.

MKKVLMAFIICLSLILSVLAAPPSGTKAESV gave an AmyQ secretion efficiency of 2.94.

Sequence MKKVLMAFIICLSLILSVLAAPPSGVKAESV gave an AmyQ secretion efficiency of 1.85.

In turn, MKKVLMAFIICLSLILTLTSVIFISVLAAPPSGAKAESV yielded an AmyQ secretion efficiency of 2.47.

As for MKKVLMAFIICLSLILVVLAAGPSTAKAESV, the AmyQ secretion efficiency stood at 1.98.

As for MKKVLMAFIICLSVLAAPPSGAKAESV, the AmyQ secretion efficiency came to 2.14.

As for MKKVMLATALFLGLTFTTFAPAGANAADL, the AmyQ secretion efficiency was determined as 2.89.

The sequence MKKVMLATALFLGLTPAGANAARR showed an AmyQ secretion efficiency of 4.33.

For the sequence MKKVMLATALFLGLTPAGANAASK, the AmyQ secretion efficiency was 2.96.

MKKVMLATALFLGLTPAGANARKR registered an AmyQ secretion efficiency of 6.61.

Sequence MKKVMLATALFLGLTPAGANIADL registered an AmyQ secretion efficiency of 6.67.

Regarding MKKVMLATALFLGLTPAGVNAADL, the AmyQ secretion efficiency amounted to 4.08.

The values are drawn from the supplement of paper PMC9942255.
